This assay addresses AMPA glutamate receptor subunit GluA1 (mouse (endogenous in primary hippocampal neurons)) (UniProt P23818). As to the kind of experiment: co-IP; endogenous proteins in lysates of hippocampal neurons treated with vehicle (CTR) or IPA (insulin 20 nM + palmitic acid 0.2 mM); IP buffer KCl 50 mM, Tris-HCl 50 mM pH 8, EDTA 10 mM, 1% Nonidet P-40; specific antibody or IgG (negative control) with protein G-sepharose 4B, 6 h at 4 °C; six washes; immunoblot.
UniProt P23818, sequence (P23818 19-907): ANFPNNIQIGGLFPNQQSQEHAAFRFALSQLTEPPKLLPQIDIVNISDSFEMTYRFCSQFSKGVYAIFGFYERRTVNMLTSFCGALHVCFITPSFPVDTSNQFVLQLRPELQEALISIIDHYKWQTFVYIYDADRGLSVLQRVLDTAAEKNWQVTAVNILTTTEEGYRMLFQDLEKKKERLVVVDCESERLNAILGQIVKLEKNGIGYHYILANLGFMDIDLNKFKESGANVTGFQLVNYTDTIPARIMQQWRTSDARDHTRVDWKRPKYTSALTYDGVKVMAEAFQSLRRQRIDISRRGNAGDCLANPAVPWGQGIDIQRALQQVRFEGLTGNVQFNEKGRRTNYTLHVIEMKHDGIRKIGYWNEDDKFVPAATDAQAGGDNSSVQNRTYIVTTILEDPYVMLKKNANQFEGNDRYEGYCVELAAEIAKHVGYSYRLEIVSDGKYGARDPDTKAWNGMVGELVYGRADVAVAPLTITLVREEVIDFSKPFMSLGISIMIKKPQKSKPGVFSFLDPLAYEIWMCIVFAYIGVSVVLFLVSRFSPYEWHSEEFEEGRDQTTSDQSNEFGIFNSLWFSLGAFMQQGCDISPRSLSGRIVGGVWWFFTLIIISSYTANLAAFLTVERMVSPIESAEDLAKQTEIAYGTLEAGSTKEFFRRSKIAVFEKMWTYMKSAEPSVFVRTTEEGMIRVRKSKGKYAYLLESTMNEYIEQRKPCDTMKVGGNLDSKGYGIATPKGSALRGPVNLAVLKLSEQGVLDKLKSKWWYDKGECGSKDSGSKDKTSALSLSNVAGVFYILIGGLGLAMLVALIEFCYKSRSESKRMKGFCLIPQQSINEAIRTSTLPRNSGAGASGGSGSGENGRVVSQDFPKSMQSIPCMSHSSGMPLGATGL

In the case of “actin (from UniProt P60710 1-375) (natural protein)”, the change of the co-precipitated amount after IPA against vehicle control is -74%.

The values above are taken from PMC5722929.
